Assay results taken from patent publication US20180125924A1 (NORTHWESTERN UNIVERSITY, published 2018).
Groups on a side chain read outwards from the residue. No end group written: not given here. *: point of attachment. triazole = 1,2,3-triazole formed by click reaction linking the lysine-side-chain spacer to the azidoethyl glycoside; Palmitoyl = CCCCCCCCCCCCCCCC(=O)*

Molecular target: recombinant human BMP-2 obtained from Medtronic Sofamor Danek (human, UniProt P12643 283-396)
Test: cell-based or functional assay

recombinant human BMP-2 obtained from Medtronic Sofamor Danek, sequence (P12643 283-396 limits assumed): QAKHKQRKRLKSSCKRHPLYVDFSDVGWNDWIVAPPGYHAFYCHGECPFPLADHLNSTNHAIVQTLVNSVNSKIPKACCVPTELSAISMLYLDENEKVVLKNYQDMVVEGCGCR

For Palmitoyl-VVAAEEK([COCH2(O(CH2)2)2NHCO(CH2)2-triazole-ethyl-2‑acetamido‑3,4,6‑tri‑O‑sulfo‑2‑deoxy‑beta‑D‑glycopyranoside]) (also: self-assembled nanofibers) [3,4,6S-GlcNAc PA (PA 1) nanofibers], the “ALP activity in C2C12 cells treated with BMP-2 (75 ng/mL) and PA nanofibers (25 uM)” value was 9 fold.
